Test results reported in the RNAGym collection of RNA variant scans (doi:10.7554/elife.80360).

B1: Hairpin Ribozyme (parent)
chain: GUCCUCUUUCACGUGCGCGUGAAAGAGAGAAGUGAACCAGAGAAACACACGUUGUGGUAUAUUACCUGGUA

Variants of: B1
Experiment: self-cleavage, relative activity (ratio to wild type); higher = more cleavage; co-transcriptional

Variant | self-cleavage
C16A A36U | 0.554
C16A A36G | 1.1
G15A A49G | 0.527
G15A A49U | 0.149
C16A U63C | 0.0962
G15C C66G | 0.0808
G15U A43G | 0.151
G15U A43U | 0.104
C16G A64U | 0.172
C16G A64C | 0.161
C16G A64G | 0.511
G15A C66U | 0.35
G15U U55A | 0.304
G15C G29C | 0.116
G15C G29U | 0.174
C16G A22U | 0.691
C16G A22C | 0.604
G15A U60C | 0.853
G15C G42U | 0.19
U14G G57U | 0.234
G15C A36C | 0.678
G15C A36G | 1.06
U14G G34C | 1.52
C16A U33G | 0.317

Variant | self-cleavage
G15A G29C | 0.106
G15C A26C | 0.834
C16A G27U | 0.202
C16A G27C | 0.218
G15U U53C | 1.04
G15U U53A | 1.16
G15A A35G | 0.934
G15A A44C | 0.143
G15A A44U | 0.196
U14G A22G | 0.798
U14G A22U | 0.683
U14G C37A | 0.276
U14G C37G | 0.276
U14G G42C | 0.101
C16A U20A | 0.743
C16A U20G | 0.812
C16A A31C | 0.0433
G15A C18U | 1.05
G15U G19U | 0.853
C16G A49G | 0.544
G15A C37A | 0.388
G15A C37G | 0.312
G15A C37U | 0.699
C16A C66U | 0.416

Variant | self-cleavage
G15U A59G | 0.161
C16A G42A | 0.366
C16A G25A | 0.561
C16A G56U | 0.151
G15U A24C | 1.08
G15U A24G | 1.12
G15C A39U | 0.402
G15C A39C | 0.463
G15C A43U | 0.126
U14G G40C | 0.111
G15C G19A | 0.913
U14G U63A | 0.217
G15C C18U | 0.922
G15C C18G | 0.863
U14G A64C | 0.27
C16A A26U | 0.607
G15C U20A | 0.963
U14G A23G | 0.703
U14G G51C | 0.734
U14G C46G | 0.131
G15A G56U | 0.134
G15C U33A | 0.0629
C16A G32U | 0.226
C16A G32A | 0.121

Variant | self-cleavage
C16A G32C | 0.0596
G15A A43G | 0.155
G15A A43U | 0.178
U14G A43G | 0.0894
U14G A43U | 0.186
C16A U62G | 0.154
C16A U62C | 0.276
G15C G25U | 0.637
G15C G25A | 0.607
G15C A23U | 1.02
G15C A23C | 0.868
C16G A30U | 0.0915
G15A G25C | 0.491
C16A A43U | 0.0656
U14G U67C | 0.145
U14G U67A | 0.186
G15C A59C | 0.146
G15C A59U | 0.224
C16A G19A | 0.991
U14G A47U | 0.105
U14G U58A | 0.753
G15C G56U | 0.113
G15C G56C | 0.113
G15C U53A | 0.792

Variant | self-cleavage
G15A A23C | 0.877
G15U U33C | 0.178
G15C G17U | 0.959
G15U G32C | 0.122
G15A G69A | 0.362
G15A G69U | 0.217
C16G A36U | 0.553
G15U G25A | 0.703
C16A C48G | 0.155
G15C C48A | 0.121
C16A G21U | 0.72
U14G G56C | 0.164
U14G C66A | 0.0772
G15U U20C | 1
G15A G27C | 0.146
G15U A30U | 0.146
C16G A31U | 0.226
C16G A31C | 0.0855
G15A U58A | 0.533
G15A U58G | 0.501
G15A U20G | 0.85
U14G G25C | 0.312
U14G G25U | 0.492
U14G | 0.813

Variant | self-cleavage
G15C C37G | 0.298
G15C C46U | 0.151
G15U G69A | 0.448
G15U G69C | 0.434
C16G A71G | 1.05
C16G A71C | 1.35
G15C U63A | 0.188
C16G A35C | 0.659
C16G A35U | 0.693
G15A G42A | 0.15
G15U A28U | 0.765
U14G A59U | 0.183
U14G A59C | 0.0613
C16A A41C | 1.18
C16A A39C | 0.484
U14G G69C | 0.238
G15A U33A | 0.0921
G15A U33C | 0.117
G15U C18G | 1.02
G15C A45C | 0.18
G15A A30G | 0.187
U14G U55G | 0.273
U14G U20A | 0.866
U14G U20C | 0.992

Variant | self-cleavage
G15U G57A | 0.153
G15U G57U | 0.296
G15A C38G | 0.297
G15A C38A | 0.148
U14G A49U | 0.0246
G15A C16U | 1.01
G15A A41U | 1.26
G15A A59U | 0.213
G15A A59C | 0.182
C16A U70C | 0.978
C16A U70A | 0.83
C16A U58G | 0.736
C16G A59U | 0.145
U14G A30U | 0.175
G15U C46U | 0.187
C16A G17U | 0.944
U14G A24G | 0.747
G15U A64C | 0.16
G15U A64G | 0.657
G15C A71C | 1.29
G15C A22U | 1.01
G15U G56U | 0.0866
C16A G29C | 0.0987
C16A G29U | 0.128

Variant | self-cleavage
C16A G29A | 0.144
G15C A47U | 0.142
U14G U33C | 0.0267
U14G U33G | 0.127
U14G U33A | 0.116
U14G A31C | 0.267
C16A G57A | 0.129
G15C C65U | 0.352
U14G A28G | 1.15
U14G A28C | 0.589
G15A U63C | 0.0715
G15A U63A | 0.116
G15A U63G | 0.0686
C16A A64C | 0.133
G15A G32A | 0.145
G15A G32U | 0.0825
G15U G34U | 1.46
U14G G54A | 0.439
U14G C50G | 0.2
U14G C50U | 0.2
U14G C18U | 0.7
G15C G51U | 0.91
C16G C50A | 0.198
C16G C50U | 0.306

Variant | self-cleavage
C16G G19U | 0.719
C16G G19C | 0.618
G15U C50A | 0.274
C16G C66G | 0.0535
G15C C38G | 0.127
G15C C38A | 0.22
C16G C38U | 0.167
G15C G68C | 0.165
C16G C18U | 0.823
C16G C18G | 0.863
U14G A61U | 0.2
U14G A61G | 0.0735
U14G A61C | 0.257
U14G A71U | 0.678
U14G U62C | 0.213
G15U A61C | 0.261
U14G U70G | 0.659
U14G U70C | 1.13
C16A A45G | 0.115
C16A A45C | 0.123
G15U U70A | 0.96
C16G C65G | 0.163
G15U C65G | 0.244
C16A U53C | 0.753

Variant | self-cleavage
G15C G57C | 0.137
G15A A28C | 0.586
G15A A28G | 0.978
U14G A41G | 0.589
G15C A24U | 0.884
G15U G51A | 0.948
G15U G51C | 1.08
G15U G51U | 1.22
G15U A49U | 0.0651
G15U A49C | 0.0683
U14G U53A | 0.835
G15C U62C | 0.0966
G15A A47C | 0.302
G15C A31C | 0.206
G15U G29A | 0.0502
G15A U55C | 0.225
G15U U67C | 0.267
C16A A61G | 0.203
C16A A61C | 0.359
C16G C37G | 0.386
U14G C48A | 0.165
G15U C16A | 1.11
C16A A30G | 0.11
G15A G40U | 0.111

Variant | self-cleavage
U14G A26C | 0.522
U14G A26U | 0.549
U14G A45G | 0.0744
G15C U58G | 0.493
C16A U55A | 0.221
C16A U55G | 0.232
G15U G68U | 0.329
G15U G68A | 0.387
C16A A22C | 0.713
G15U C66G | 0.183
C16G A45C | 0.152
C16G A45U | 0.229
G15U C48G | 0.213
G15U C48U | 0.149
G15U C48A | 0.226
C16A C38A | 0.203
G15U U52C | 0.911
G15C U60A | 0.709
U14G A36G | 1.11
G15U G40A | 0.335
G15U G40U | 0.206
C16A U67G | 0.182
G15C G34A | 1.02
G15C G34C | 0.578

Variant | self-cleavage
G15U A39G | 0.245
C16A G51C | 0.714
C16A G51A | 0.943
U14G A39U | 0.285
G15U U63A | 0.164
C16A G40U | 0.147
G15U U58G | 0.711
C16G A44G | 0.0556
U14G G29A | 0.0483
U14G G29U | 0.151
C16A C50G | 0.24
U14G G15C | 0.864
G15U A47G | 0.116
G15A A45G | 0.17
G15A U52G | 0.641
G15C A61U | 0.181
G15C A61G | 0.173
C16A A59G | 0.085
G15C C16U | 1.29
C16A U52G | 0.879
G15U G27A | 0.432
G15U G27C | 0.278
C16A A47U | 0.0731
C16A A47C | 0.365

Variant | self-cleavage
G15U G42A | 0.207
G15A A24G | 0.963
G15A A24C | 0.899
G15A G51C | 0.79
G15A G51U | 0.82
G15C A64C | 0.162
G15C A64G | 0.532
G15U A71G | 1.12
G15U A71U | 0.923
G15C A28C | 0.407
G15C A28G | 1.29
G15U A26U | 0.831
G15U A26C | 0.96
C16A A24U | 0.632
G15U G17C | 0.881
G15A G68U | 0.232
G15C A35G | 1.08
U14G G17A | 0.854
C16A A44G | 0.153
C16G A23U | 0.718
G15A A26C | 0.93
U14G C65U | 0.316
C16A C37A | 0.377
C16A C37G | 0.324

Variant | self-cleavage
G15A G17C | 0.83
C16G A43C | 0.156
C16G A43G | 0.0515
G15A A31U | 0.133
G15A A31G | 0.586
U14G G32U | 0.107
U14G G32A | 0.191
C16A G34A | 1.35
C16A G34U | 1.47
C16A C46U | 0.0901
G15U C37G | 0.339
G15U C37A | 0.386
G15U C37U | 0.784
U14G U52G | 0.507
C16A G69U | 0.334
C16G A61U | 0.253
C16G A61G | 0.151
C16A C18U | 0.98
C16A C18G | 0.841
C16G A47G | 0.187
U14G G27U | 0.144
C16A A23G | 0.783
